Earlier results in article PMC3903589.

Assays:
CEACAM1 = CEACAM1 (UniProt P13688); assay: SPR
NCAM = NCAM (UniProt P13591); assay: SPR

Chain of CEACAM1 (P13688 35-428): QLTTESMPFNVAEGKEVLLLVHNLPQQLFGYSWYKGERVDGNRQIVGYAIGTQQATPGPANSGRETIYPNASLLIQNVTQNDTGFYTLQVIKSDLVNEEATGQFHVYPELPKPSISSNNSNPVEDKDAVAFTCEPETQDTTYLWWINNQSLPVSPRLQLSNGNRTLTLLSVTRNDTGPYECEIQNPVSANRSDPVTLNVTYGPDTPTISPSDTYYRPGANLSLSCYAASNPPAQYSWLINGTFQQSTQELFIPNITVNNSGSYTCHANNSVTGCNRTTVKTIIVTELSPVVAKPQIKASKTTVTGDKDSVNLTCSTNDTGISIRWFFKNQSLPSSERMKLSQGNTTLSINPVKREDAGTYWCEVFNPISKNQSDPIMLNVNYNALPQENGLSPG
Chain of NCAM (P13591 20-718): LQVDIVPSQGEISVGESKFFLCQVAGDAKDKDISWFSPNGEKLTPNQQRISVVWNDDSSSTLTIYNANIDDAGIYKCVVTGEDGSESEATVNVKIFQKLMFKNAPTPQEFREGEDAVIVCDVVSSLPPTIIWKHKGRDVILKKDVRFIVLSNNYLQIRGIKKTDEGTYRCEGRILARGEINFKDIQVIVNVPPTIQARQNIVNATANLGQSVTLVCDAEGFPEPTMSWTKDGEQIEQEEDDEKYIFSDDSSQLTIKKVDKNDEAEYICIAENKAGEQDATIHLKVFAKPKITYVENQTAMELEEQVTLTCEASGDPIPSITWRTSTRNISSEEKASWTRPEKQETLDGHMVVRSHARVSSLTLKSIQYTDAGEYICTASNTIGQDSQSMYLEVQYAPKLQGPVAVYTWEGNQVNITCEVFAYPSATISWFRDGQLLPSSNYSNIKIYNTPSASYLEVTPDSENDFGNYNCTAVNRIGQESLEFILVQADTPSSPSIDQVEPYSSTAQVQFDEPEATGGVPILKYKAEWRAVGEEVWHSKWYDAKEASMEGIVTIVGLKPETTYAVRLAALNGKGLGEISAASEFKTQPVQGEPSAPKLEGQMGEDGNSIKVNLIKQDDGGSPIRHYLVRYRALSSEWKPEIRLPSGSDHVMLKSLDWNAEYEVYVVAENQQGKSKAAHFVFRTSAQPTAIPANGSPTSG

| Kd (CEACAM1) | Kd (NCAM) | Substance |
| --- | --- | --- |
| 7.65 µM |  | CEACAM1 (from UniProt P13688) |
|  | 0.025 µM | NCAM (from UniProt P13591) |
